Source: patent publication US20070248536A1
One block for each binder: values may come before it.

Assays:
human IgG Fc (human) [1] = assay: SPR (BIACORE), value before the coupling to PE
human IgG Fc (human) [2] = assay: concentration-dependent ELISA, IgG Fc coated, apparent KD
human IgG Fc (human) [3] = assay: method not given; given for comparison with the ELISA value

Kd (human IgG Fc (human) [1]): 100 nM
Kd (human IgG Fc (human) [2]): 233 nM
B1: Affilin variation SPC1-A7_Cys (designed binder)
chain: MGLISFSEDRAFQGRRYMCLTDCPNLQPYFSRCNSINVWSGCWMIYERPNYQGHQYFLRRGEYPDYQQWMGLSDSIRSCCLIPPHSGAYRMKIYDRDELRGQMSELTDDCLSVQDRFHLTEIHSLNVLEGSWILYEMPNYRGRQYLLRPGEYRRFLDWGAPNAKVGSLRRVMDLYLESGGGGGGSCHHHHHHHHHH

Kd (human IgG Fc (human) [3]): 280 nM
B2: Affilin variation SPC1-A7BB (designed binder)
chain: MGLISFSEDRAFQGRRYMCLTDCPNLQPYFSRCNSINVWSGCWMIYERPNYQGHQYFLRRGEYPDYQQWMGLSDSIRSCCLIPPHSGAYRMKIYDRDELRGQMSELTDDCLSVQDRFHLTEIHSLNVLEGSWILYEMPNYRGRQYLLRPGEYRRFLDWGAPNAKVGSLRRVMDLYLEHHHHHH
